This data set relates to Escherichia coli TOP10. Put plainly: shrunken log2 fold change of peptide-encoding DNA abundance (4.5 h post-induction vs induction); higher = less antimicrobial activity (less host growth inhibition). Conditions: time post-induction: 4.5 h; library: site-saturation at positions 5, 18, 19, 20.

Data on 125 sequences can be found in the supplement of paper PMC9112550, “Optimization of the antimicrobial peptide Bac7 by deep mutational scanning” (BMC Biology, 2022).
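Further: peptides expressed intracellularly from a pBAD plasmid library in pooled LB shake-flask culture, induced with 0.3% L-arabinose, DNA abundance read by NGS, three biological replicates, DESeq2 with apeglm shrinkage.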

Turning to RRIRHRPPRLPRPRPRPKESPRP, the “shrunken log2 fold change” value was -0.069. For RRIRARPPRLPRPRPRPRVIPRP, the “shrunken log2 fold change” value is -0.0156. Turning to RRIRQRPPRLPRPRPRPTMEPRP, the “shrunken log2 fold change” value is -0.0535. For RRIRRRPPRLPRPRPRPWKHPRP the value was -0.167; for RRIRFRPPRLPRPRPRPQRTPRP, -0.101; for RRIRCRPPRLPRPRPRPDNPPRP, -0.137.

Take RRIRTRPPRLPRPRPRPLHWPRP: the “shrunken log2 fold change” value turned out to be 0.111. For the sequence RRIRDRPPRLPRPRPRPRMQPRP, the “shrunken log2 fold change” value was -0.196. Turning to RRIRARPPRLPRPRPRPHAPPRP, the “shrunken log2 fold change” value is 0.54.

Turning to RRIRSRPPRLPRPRPRPCNVPRP, the “shrunken log2 fold change” value is -0.175. As to RRIRLRPPRLPRPRPRPNDTPRP, the “shrunken log2 fold change” value is -0.302.

As for RRIRWRPPRLPRPRPRPKKMPRP, the “shrunken log2 fold change” value is 0.0841. RRIRNRPPRLPRPRPRPWCTPRP: the “shrunken log2 fold change” value is -0.205.

Regarding RRIRWRPPRLPRPRPRPKNAPRP, the “shrunken log2 fold change” value was found to be 0.202. Take RRIRFRPPRLPRPRPRPIRYPRP: the “shrunken log2 fold change” value was -0.125. Turning to RRIRWRPPRLPRPRPRPWYCPRP, the “shrunken log2 fold change” value came out at 0.0408.

In the case of RRIRLRPPRLPRPRPRPSVNPRP, the “shrunken log2 fold change” value was -0.822. For RRIRDRPPRLPRPRPRPATDPRP, the “shrunken log2 fold change” value was 0.0254. RRIRWRPPRLPRPRPRPIERPRP: the “shrunken log2 fold change” value is 0.0857. Take RRIRVRPPRLPRPRPRPLHNPRP: the “shrunken log2 fold change” value is -0.143. For RRIRARPPRLPRPRPRPMPHPRP the value was 0.145. Regarding RRIRRRPPRLPRPRPRPEKAPRP, the “shrunken log2 fold change” value was found to be 0.0304.

For the sequence RRIRKRPPRLPRPRPRPIIYPRP, the “shrunken log2 fold change” value is 0.0162.

Turning to RRIRERPPRLPRPRPRPVMNPRP, the “shrunken log2 fold change” value is -0.0808. For RRIRDRPPRLPRPRPRPWQAPRP, the “shrunken log2 fold change” value is -0.0194. RRIRYRPPRLPRPRPRPEYDPRP: the “shrunken log2 fold change” value is -0.104. In the case of RRIRPRPPRLPRPRPRPLWYPRP, the “shrunken log2 fold change” value was -0.496. RRIRHRPPRLPRPRPRPANWPRP: the “shrunken log2 fold change” value was found to be 0.135. On to RRIRARPPRLPRPRPRPGHNPRP, for which the “shrunken log2 fold change” value is -0.0862. RRIRLRPPRLPRPRPRPCNDPRP: the “shrunken log2 fold change” value was -0.101. With RRIRCRPPRLPRPRPRPDHDPRP, the “shrunken log2 fold change” value was -0.265. RRIRCRPPRLPRPRPRPYMEPRP: the “shrunken log2 fold change” value was -0.428. For RRIRVRPPRLPRPRPRPTSWPRP the value was 0.383. For the sequence RRIRYRPPRLPRPRPRPLRSPRP, the “shrunken log2 fold change” value was 0.538. For the sequence RRIRPRPPRLPRPRPRPLMWPRP, the “shrunken log2 fold change” value was determined as 0.432.

On to RRIRERPPRLPRPRPRPLHQPRP, for which the “shrunken log2 fold change” value was -0.0505. As for RRIRKRPPRLPRPRPRPLAMPRP, the “shrunken log2 fold change” value came to 0.486. For RRIRFRPPRLPRPRPRPNLNPRP the value was -0.504; for RRIRERPPRLPRPRPRPYCLPRP, -0.123; for RRIRKRPPRLPRPRPRPHVFPRP, 0.015. For RRIRRRPPRLPRPRPRPGIGPRP the value was -0.00887; for RRIRNRPPRLPRPRPRPQVWPRP, 0.0895. For the sequence RRIRWRPPRLPRPRPRPRTVPRP, the “shrunken log2 fold change” value came out at 0.0512.

Take RRIRHRPPRLPRPRPRPLEYPRP: the “shrunken log2 fold change” value was -0.168. As for RRIRRRPPRLPRPRPRPHMEPRP, the “shrunken log2 fold change” value is 0.0679. On to RRIRMRPPRLPRPRPRPARHPRP, for which the “shrunken log2 fold change” value worked out at 0.974. For RRIRLRPPRLPRPRPRPWRGPRP the value was 0.277; for RRIRSRPPRLPRPRPRPAHAPRP, 0.121; for RRIRKRPPRLPRPRPRPCSFPRP, -0.397. With RRIRARPPRLPRPRPRPPEEPRP, the “shrunken log2 fold change” value amounted to 1.73.

For RRIRCRPPRLPRPRPRPTIIPRP, the “shrunken log2 fold change” value was -0.343.

As to RRIRDRPPRLPRPRPRPIKRPRP, the “shrunken log2 fold change” value stood at 0.000716. For RRIRSRPPRLPRPRPRPVMSPRP the value was 0.11; for RRIRGRPPRLPRPRPRPLMCPRP, 0.55; for RRIRARPPRLPRPRPRPSLYPRP, 0.0269. For the sequence RRIRDRPPRLPRPRPRPPDHPRP, the “shrunken log2 fold change” value turned out to be 0.527. For RRIRIRPPRLPRPRPRPQKGPRP the value was -0.33; for RRIRVRPPRLPRPRPRPNRCPRP, -0.364; for RRIRARPPRLPRPRPRPCFDPRP, 0.191. On to RRIRMRPPRLPRPRPRPPWYPRP, for which the “shrunken log2 fold change” value is 0.117. Regarding RRIRIRPPRLPRPRPRPPTDPRP, the “shrunken log2 fold change” value came out at 1.33. For RRIRIRPPRLPRPRPRPGFRPRP the value was 0.0935. With RRIRKRPPRLPRPRPRPEMMPRP, the “shrunken log2 fold change” value stood at 0.113.

RRIRYRPPRLPRPRPRPGDTPRP: the “shrunken log2 fold change” value is -0.276.

For the sequence RRIRERPPRLPRPRPRPHFWPRP, the “shrunken log2 fold change” value came out at 0.16.

For RRIRHRPPRLPRPRPRPFGVPRP, the “shrunken log2 fold change” value is -0.326. For RRIRFRPPRLPRPRPRPHSVPRP, the “shrunken log2 fold change” value worked out at 0.036. In the case of RRIRGRPPRLPRPRPRPYMEPRP, the “shrunken log2 fold change” value was -0.164. With RRIRPRPPRLPRPRPRPECVPRP, the “shrunken log2 fold change” value was found to be 0.541. For RRIRSRPPRLPRPRPRPMDPPRP, the “shrunken log2 fold change” value amounted to 0.00928. For RRIRNRPPRLPRPRPRPVNEPRP the value was -0.0227. For RRIRARPPRLPRPRPRPGFEPRP the value was 0.735; for RRIRYRPPRLPRPRPRPVTDPRP, -0.418; for RRIRSRPPRLPRPRPRPTWNPRP, -0.0149.

Consider RRIRMRPPRLPRPRPRPSIRPRP, for which the “shrunken log2 fold change” value turned out to be 0.0426. Regarding RRIRMRPPRLPRPRPRPCVGPRP, the “shrunken log2 fold change” value worked out at 0.584.

On to RRIRERPPRLPRPRPRPHGCPRP, for which the “shrunken log2 fold change” value is -0.00136. Turning to RRIRNRPPRLPRPRPRPDTMPRP, the “shrunken log2 fold change” value is -1.25.

RRIRSRPPRLPRPRPRPYLAPRP: the “shrunken log2 fold change” value is -0.251. As for RRIRERPPRLPRPRPRPTFYPRP, the “shrunken log2 fold change” value was -0.18.

On to RRIRVRPPRLPRPRPRPLTYPRP, for which the “shrunken log2 fold change” value is -0.356.

RRIRHRPPRLPRPRPRPPTLPRP: the “shrunken log2 fold change” value was found to be 0.246. Take RRIRWRPPRLPRPRPRPLVWPRP: the “shrunken log2 fold change” value came out at 0.426. As for RRIRLRPPRLPRPRPRPMAGPRP, the “shrunken log2 fold change” value was found to be 0.208.

In the case of RRIRIRPPRLPRPRPRPHMWPRP, the “shrunken log2 fold change” value is -0.321. As to RRIRARPPRLPRPRPRPNESPRP, the “shrunken log2 fold change” value was 0.102.

Regarding RRIRTRPPRLPRPRPRPHATPRP, the “shrunken log2 fold change” value is -0.0102. For RRIRDRPPRLPRPRPRPWCWPRP the value was 0.036; for RRIRGRPPRLPRPRPRPHILPRP, -0.198; for RRIRLRPPRLPRPRPRPYHGPRP, -0.278. For RRIRCRPPRLPRPRPRPSTPPRP the value was -0.382; for RRIRLRPPRLPRPRPRPWDRPRP, -0.0145. For the sequence RRIRWRPPRLPRPRPRPKSQPRP, the “shrunken log2 fold change” value is 0.263. Regarding RRIRCRPPRLPRPRPRPINKPRP, the “shrunken log2 fold change” value was -1.19.

As for RRIRSRPPRLPRPRPRPKFEPRP, the “shrunken log2 fold change” value came out at 0.12. For RRIRWRPPRLPRPRPRPAFSPRP the value was 0.383; for RRIRPRPPRLPRPRPRPIDSPRP, -0.018; for RRIRIRPPRLPRPRPRPTYVPRP, -0.0344.

Consider RRIRGRPPRLPRPRPRPCRPPRP, for which the “shrunken log2 fold change” value is -0.04. With RRIRNRPPRLPRPRPRPAETPRP, the “shrunken log2 fold change” value is -0.119. Regarding RRIRKRPPRLPRPRPRPQHMPRP, the “shrunken log2 fold change” value is 0.0396. Take RRIRKRPPRLPRPRPRPIIQPRP: the “shrunken log2 fold change” value was found to be 0.0837. RRIRDRPPRLPRPRPRPKTQPRP: the “shrunken log2 fold change” value was -0.0316. For RRIRIRPPRLPRPRPRPFQDPRP the value was 0.0408; for RRIRDRPPRLPRPRPRPGCPPRP, 0.0445; for RRIRLRPPRLPRPRPRPMYVPRP, -0.199. For RRIRYRPPRLPRPRPRPGTGPRP the value was 0.147; for RRIRNRPPRLPRPRPRPHKRPRP, -0.263; for RRIRSRPPRLPRPRPRPEGHPRP, 0.0136.

Take RRIRWRPPRLPRPRPRPMSCPRP: the “shrunken log2 fold change” value was -0.256. For RRIRERPPRLPRPRPRPHHDPRP the value was -0.578; for RRIRRRPPRLPRPRPRPMTYPRP, -0.0343. On to RRIRGRPPRLPRPRPRPFPYPRP, for which the “shrunken log2 fold change” value is -0.334. Turning to RRIRTRPPRLPRPRPRPTIWPRP, the “shrunken log2 fold change” value is 0.03.

Take RRIRFRPPRLPRPRPRPMIVPRP: the “shrunken log2 fold change” value is -0.105. For RRIRKRPPRLPRPRPRPTGLPRP the value was 0.223; for RRIRLRPPRLPRPRPRPEFPPRP, -0.0973.

In the case of RRIRLRPPRLPRPRPRPIRPPRP, the “shrunken log2 fold change” value is -0.113. For RRIRSRPPRLPRPRPRPQLVPRP the value was 0.0331. For RRIRRRPPRLPRPRPRPIFHPRP the value was 0.129. For RRIRHRPPRLPRPRPRPCCDPRP the value was -0.228.

For RRIRHRPPRLPRPRPRPVYDPRP, the “shrunken log2 fold change” value was -0.202.

Consider RRIRYRPPRLPRPRPRPAVTPRP, for which the “shrunken log2 fold change” value was -3.6. For RRIRVRPPRLPRPRPRPVIEPRP the value was 0.161; for RRIRLRPPRLPRPRPRPILEPRP, -0.186.
